Numbered stars: 1 amine (or outer) side, 2 acyl side, 3 side chain; on linkers, the order of the positions; unused ones are H or OH. Bridge positions count the residues as written; N and C are the ends. Side chains are listed from the residue outwards. Ends that are not written are not given here. * marks the point of attachment. C20 diacid = O=C(O)CCCCCCCCCCCCCCCCCCC(=O)*; γGlu = O=C(O)[C@H](CCC(=O)[*:2])N[*:1]
B1: N^α1-[(4S)-4-carboxy-4-(19-carboxynonadecanoylamino)butanoyl]-[Glu14,Arg17,Pro21,Pro27,Asp35,Pro37]-h-amylin (peptide)
peptide: {C20 diacid-γGlu}-KCNTATCATQRLAEFLRHSSPNFGAIPSSTNVGSDTP-NH2
modifications: disulfide 2-7
SMILES: CC[C@H](C)[C@H](NC(=O)[C@H](C)NC(=O)CNC(=O)[C@H](Cc1ccccc1)NC(=O)[C@H](CC(N)=O)NC(=O)[C@@H]1CCCN1C(=O)[C@H](CO)NC(=O)[C@H](CO)NC(=O)[C@H](Cc1c[nH]cn1)NC(=O)[C@H](CCCNC(=N)N)NC(=O)[C@H](CC(C)C)NC(=O)[C@H](Cc1ccccc1)NC(=O)[C@H](CCC(=O)O)NC(=O)[C@H](C)NC(=O)[C@H](CC(C)C)NC(=O)[C@H](CCCNC(=N)N)NC(=O)[C@H](CCC(N)=O)NC(=O)[C@@H](NC(=O)[C@H](C)NC(=O)[C@@H]1CSSC[C@H](NC(=O)[C@H](CCCCN)NC(=O)CC[C@H](NC(=O)CCCCCCCCCCCCCCCCCCC(=O)O)C(=O)O)C(=O)N[C@@H](CC(N)=O)C(=O)N[C@@H]([C@@H](C)O)C(=O)N[C@@H](C)C(=O)N[C@@H]([C@@H](C)O)C(=O)N1)[C@@H](C)O)C(=O)N1CCC[C@H]1C(=O)N[C@@H](CO)C(=O)N[C@@H](CO)C(=O)N[C@H](C(=O)N[C@@H](CC(N)=O)C(=O)N[C@H](C(=O)NCC(=O)N[C@@H](CO)C(=O)N[C@@H](CC(=O)O)C(=O)N[C@H](C(=O)N1CCC[C@H]1C(N)=O)[C@@H](C)O)C(C)C)[C@@H](C)O
notes: Synthetic acylated analogue of human amylin; also called compound 11
B2: N^ε1-[(4S)-4-carboxy-4-(19-carboxynonadecanoylamino)butanoyl]-[Glu14,Arg17,Pro21,Pro27,Pro34,Pro37]-h-amylin (peptide)
peptide: K([γGlu-C20 diacid])CNTATCATQRLAEFLRHSSPNFGAIPSSTNVGPNTP-NH2
modifications: disulfide 2-7; N-terminus assumed
SMILES: CC[C@H](C)[C@H](NC(=O)[C@H](C)NC(=O)CNC(=O)[C@H](Cc1ccccc1)NC(=O)[C@H](CC(N)=O)NC(=O)[C@@H]1CCCN1C(=O)[C@H](CO)NC(=O)[C@H](CO)NC(=O)[C@H](Cc1c[nH]cn1)NC(=O)[C@H](CCCNC(=N)N)NC(=O)[C@H](CC(C)C)NC(=O)[C@H](Cc1ccccc1)NC(=O)[C@H](CCC(=O)O)NC(=O)[C@H](C)NC(=O)[C@H](CC(C)C)NC(=O)[C@H](CCCNC(=N)N)NC(=O)[C@H](CCC(N)=O)NC(=O)[C@@H](NC(=O)[C@H](C)NC(=O)[C@@H]1CSSC[C@H](NC(=O)[C@@H](N)CCCCNC(=O)CC[C@H](NC(=O)CCCCCCCCCCCCCCCCCCC(=O)O)C(=O)O)C(=O)N[C@@H](CC(N)=O)C(=O)N[C@@H]([C@@H](C)O)C(=O)N[C@@H](C)C(=O)N[C@@H]([C@@H](C)O)C(=O)N1)[C@@H](C)O)C(=O)N1CCC[C@H]1C(=O)N[C@@H](CO)C(=O)N[C@@H](CO)C(=O)N[C@H](C(=O)N[C@@H](CC(N)=O)C(=O)N[C@H](C(=O)NCC(=O)N1CCC[C@H]1C(=O)N[C@@H](CC(N)=O)C(=O)N[C@H](C(=O)N1CCC[C@H]1C(N)=O)[C@@H](C)O)C(C)C)[C@@H](C)O
notes: Synthetic acylated analogue of human amylin
B3: N^ε1-[(4S)-4-carboxy-4-[[(4S)-4-carboxy-4-(19-carboxynonadecanoylamino)butanoyl]amino]butanoyl]-[Glu14,Arg17,Pro21,Pro27,Pro37]-h-amylin (peptide)
peptide: K([γGlu-γGlu-C20 diacid])CNTATCATQRLAEFLRHSSPNFGAIPSSTNVGSNTP-NH2
modifications: disulfide 2-7 (inferred)
notes: Synthetic acylated analogue of human amylin; also called compound 13
B4: N^α1-[(4S)-4-carboxy-4-[[(4S)-4-carboxy-4-(19-carboxynonadecanoylamino)butanoyl]amino]butanoyl]-[Glu14,Arg17,Pro21,Pro27,Pro37]-h-amylin (peptide)
peptide: {C20 diacid-γGlu-γGlu}-KCNTATCATQRLAEFLRHSSPNFGAIPSSTNVGSNTP-NH2
modifications: disulfide 2-7
SMILES: CC[C@H](C)[C@H](NC(=O)[C@H](C)NC(=O)CNC(=O)[C@H](Cc1ccccc1)NC(=O)[C@H](CC(N)=O)NC(=O)[C@@H]1CCCN1C(=O)[C@H](CO)NC(=O)[C@H](CO)NC(=O)[C@H](Cc1c[nH]cn1)NC(=O)[C@H](CCCNC(=N)N)NC(=O)[C@H](CC(C)C)NC(=O)[C@H](Cc1ccccc1)NC(=O)[C@H](CCC(=O)O)NC(=O)[C@H](C)NC(=O)[C@H](CC(C)C)NC(=O)[C@H](CCCNC(=N)N)NC(=O)[C@H](CCC(N)=O)NC(=O)[C@@H](NC(=O)[C@H](C)NC(=O)[C@@H]1CSSC[C@H](NC(=O)[C@H](CCCCN)NC(=O)CC[C@H](NC(=O)CC[C@H](NC(=O)CCCCCCCCCCCCCCCCCCC(=O)O)C(=O)O)C(=O)O)C(=O)N[C@@H](CC(N)=O)C(=O)N[C@@H]([C@@H](C)O)C(=O)N[C@@H](C)C(=O)N[C@@H]([C@@H](C)O)C(=O)N1)[C@@H](C)O)C(=O)N1CCC[C@H]1C(=O)N[C@@H](CO)C(=O)N[C@@H](CO)C(=O)N[C@H](C(=O)N[C@@H](CC(N)=O)C(=O)N[C@H](C(=O)NCC(=O)N[C@@H](CO)C(=O)N[C@@H](CC(N)=O)C(=O)N[C@H](C(=O)N1CCC[C@H]1C(N)=O)[C@@H](C)O)C(C)C)[C@@H](C)O
notes: Synthetic acylated analogue of human amylin; also called compound 14
B5: N^ε1-[(4S)-4-carboxy-4-(19-carboxynonadecanoylamino)butanoyl]-[His14,Arg17,Pro21,Pro27,Pro34,Pro37]-h-amylin (peptide)
peptide: K([γGlu-C20 diacid])CNTATCATQRLAHFLRHSSPNFGAIPSSTNVGPNTP-NH2
modifications: disulfide 2-7; N-terminus assumed
SMILES: CC[C@H](C)[C@H](NC(=O)[C@H](C)NC(=O)CNC(=O)[C@H](Cc1ccccc1)NC(=O)[C@H](CC(N)=O)NC(=O)[C@@H]1CCCN1C(=O)[C@H](CO)NC(=O)[C@H](CO)NC(=O)[C@H](Cc1c[nH]cn1)NC(=O)[C@H](CCCNC(=N)N)NC(=O)[C@H](CC(C)C)NC(=O)[C@H](Cc1ccccc1)NC(=O)[C@H](Cc1c[nH]cn1)NC(=O)[C@H](C)NC(=O)[C@H](CC(C)C)NC(=O)[C@H](CCCNC(=N)N)NC(=O)[C@H](CCC(N)=O)NC(=O)[C@@H](NC(=O)[C@H](C)NC(=O)[C@@H]1CSSC[C@H](NC(=O)[C@@H](N)CCCCNC(=O)CC[C@H](NC(=O)CCCCCCCCCCCCCCCCCCC(=O)O)C(=O)O)C(=O)N[C@@H](CC(N)=O)C(=O)N[C@@H]([C@@H](C)O)C(=O)N[C@@H](C)C(=O)N[C@@H]([C@@H](C)O)C(=O)N1)[C@@H](C)O)C(=O)N1CCC[C@H]1C(=O)N[C@@H](CO)C(=O)N[C@@H](CO)C(=O)N[C@H](C(=O)N[C@@H](CC(N)=O)C(=O)N[C@H](C(=O)NCC(=O)N1CCC[C@H]1C(=O)N[C@@H](CC(N)=O)C(=O)N[C@H](C(=O)N1CCC[C@H]1C(N)=O)[C@@H](C)O)C(C)C)[C@@H](C)O
notes: as for B2
B6: N^ε1-[(4S)-4-carboxy-4-[[(4S)-4-carboxy-4-(19-carboxynonadecanoylamino)butanoyl]amino]butanoyl]-[Glu14,Arg17,Pro21,Pro27,Pro34,Glu35,Pro37]-h-amylin (peptide)
peptide: K([γGlu-γGlu-C20 diacid])CNTATCATQRLAEFLRHSSPNFGAIPSSTNVGPETP-NH2
modifications: disulfide 2-7; N-terminus assumed
SMILES: CC[C@H](C)[C@H](NC(=O)[C@H](C)NC(=O)CNC(=O)[C@H](Cc1ccccc1)NC(=O)[C@H](CC(N)=O)NC(=O)[C@@H]1CCCN1C(=O)[C@H](CO)NC(=O)[C@H](CO)NC(=O)[C@H](Cc1c[nH]cn1)NC(=O)[C@H](CCCNC(=N)N)NC(=O)[C@H](CC(C)C)NC(=O)[C@H](Cc1ccccc1)NC(=O)[C@H](CCC(=O)O)NC(=O)[C@H](C)NC(=O)[C@H](CC(C)C)NC(=O)[C@H](CCCNC(=N)N)NC(=O)[C@H](CCC(N)=O)NC(=O)[C@@H](NC(=O)[C@H](C)NC(=O)[C@@H]1CSSC[C@H](NC(=O)[C@@H](N)CCCCNC(=O)CC[C@H](NC(=O)CC[C@H](NC(=O)CCCCCCCCCCCCCCCCCCC(=O)O)C(=O)O)C(=O)O)C(=O)N[C@@H](CC(N)=O)C(=O)N[C@@H]([C@@H](C)O)C(=O)N[C@@H](C)C(=O)N[C@@H]([C@@H](C)O)C(=O)N1)[C@@H](C)O)C(=O)N1CCC[C@H]1C(=O)N[C@@H](CO)C(=O)N[C@@H](CO)C(=O)N[C@H](C(=O)N[C@@H](CC(N)=O)C(=O)N[C@H](C(=O)NCC(=O)N1CCC[C@H]1C(=O)N[C@@H](CCC(=O)O)C(=O)N[C@H](C(=O)N1CCC[C@H]1C(N)=O)[C@@H](C)O)C(C)C)[C@@H](C)O
notes: as for B2
B7: N^α1-[(4S)-4-carboxy-4-(19-carboxynonadecanoylamino)butanoyl]-[Glu14,Arg17,Pro21,Pro27,Pro37]-h-amylin (peptide)
peptide: {C20 diacid-γGlu}-KCNTATCATQRLAEFLRHSSPNFGAIPSSTNVGSNTP-NH2
modifications: disulfide 2-7
SMILES: CC[C@H](C)[C@H](NC(=O)[C@H](C)NC(=O)CNC(=O)[C@H](Cc1ccccc1)NC(=O)[C@H](CC(N)=O)NC(=O)[C@@H]1CCCN1C(=O)[C@H](CO)NC(=O)[C@H](CO)NC(=O)[C@H](Cc1c[nH]cn1)NC(=O)[C@H](CCCNC(=N)N)NC(=O)[C@H](CC(C)C)NC(=O)[C@H](Cc1ccccc1)NC(=O)[C@H](CCC(=O)O)NC(=O)[C@H](C)NC(=O)[C@H](CC(C)C)NC(=O)[C@H](CCCNC(=N)N)NC(=O)[C@H](CCC(N)=O)NC(=O)[C@@H](NC(=O)[C@H](C)NC(=O)[C@@H]1CSSC[C@H](NC(=O)[C@H](CCCCN)NC(=O)CC[C@H](NC(=O)CCCCCCCCCCCCCCCCCCC(=O)O)C(=O)O)C(=O)N[C@@H](CC(N)=O)C(=O)N[C@@H]([C@@H](C)O)C(=O)N[C@@H](C)C(=O)N[C@@H]([C@@H](C)O)C(=O)N1)[C@@H](C)O)C(=O)N1CCC[C@H]1C(=O)N[C@@H](CO)C(=O)N[C@@H](CO)C(=O)N[C@H](C(=O)N[C@@H](CC(N)=O)C(=O)N[C@H](C(=O)NCC(=O)N[C@@H](CO)C(=O)N[C@@H](CC(N)=O)C(=O)N[C@H](C(=O)N1CCC[C@H]1C(N)=O)[C@@H](C)O)C(C)C)[C@@H](C)O
notes: Synthetic acylated analogue of human amylin; also called compound 8

What follows are binders tested against T1, human calcitonin receptor (human, UniProt P30988 25-474) (assay: cell-based or functional assay).
T1 sequence (looked up): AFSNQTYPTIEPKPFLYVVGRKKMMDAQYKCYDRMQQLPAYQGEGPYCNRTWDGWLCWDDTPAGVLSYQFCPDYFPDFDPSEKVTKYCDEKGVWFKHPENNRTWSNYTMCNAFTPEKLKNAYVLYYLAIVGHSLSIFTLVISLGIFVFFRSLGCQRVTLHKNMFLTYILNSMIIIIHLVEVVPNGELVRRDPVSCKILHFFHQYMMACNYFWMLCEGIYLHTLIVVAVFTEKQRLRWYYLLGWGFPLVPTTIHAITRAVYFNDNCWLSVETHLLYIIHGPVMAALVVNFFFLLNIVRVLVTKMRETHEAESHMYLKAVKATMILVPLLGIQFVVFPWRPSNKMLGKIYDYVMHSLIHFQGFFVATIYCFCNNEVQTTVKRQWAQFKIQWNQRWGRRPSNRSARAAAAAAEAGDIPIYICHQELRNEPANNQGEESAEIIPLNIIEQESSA

| Binder | hCTR funct. EC50 (CRE luciferase reporter, BHK cells) [nM] |
| --- | --- |
| B1 | 0.112 |
| B2 | 0.09 |
| B3 | 0.47 |
| B4 | 0.238 |
| B5 | 0.04 |
| B6 | 0.102 |
| B7 | 0.087 |

From US20140087995A1 (published 2014)
